Data: the supplement of paper PMC9112550, “Optimization of the antimicrobial peptide Bac7 by deep mutational scanning” (BMC Biology, 2022)

Tested on: Escherichia coli TOP10
Assay: shrunken log2 fold change of peptide-encoding DNA abundance (4.5 h post-induction vs induction); higher = less antimicrobial activity (less host growth inhibition)
Details: time post-induction: 4.5 h; library: site-saturation at positions 5, 18, 19, 20
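Note: peptides expressed intracellularly from a pBAD plasmid library in pooled LB shake-flask culture, induced with 0.3% L-arabinose, DNA abundance read by NGS, three biological replicates, DESeq2 with apeglm shrinkage.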

Sequence	shrunken log2 fold change
RRIRARPPRLPRPRPRPERKPRP	1.16
RRIRARPPRLPRPRPRPESYPRP	1.13
RRIRARPPRLPRPRPRPETDPRP	0.764
RRIRARPPRLPRPRPRPETTPRP	1.61
RRIRARPPRLPRPRPRPEVAPRP	0.214
RRIRARPPRLPRPRPRPEWLPRP	1.25
RRIRARPPRLPRPRPRPEWRPRP	0.37
RRIRARPPRLPRPRPRPEWYPRP	0.137
RRIRARPPRLPRPRPRPEYSPRP	0.0132
RRIRARPPRLPRPRPRPFAVPRP	0.129
RRIRARPPRLPRPRPRPFCVPRP	0.19
RRIRARPPRLPRPRPRPFDCPRP	-0.0326
RRIRARPPRLPRPRPRPFDPPRP	0.0109
RRIRARPPRLPRPRPRPFDQPRP	0.249
RRIRARPPRLPRPRPRPFDRPRP	0.0972
RRIRARPPRLPRPRPRPFFSPRP	-0.0124
RRIRARPPRLPRPRPRPFFWPRP	0.321
RRIRARPPRLPRPRPRPFIKPRP	-0.529
RRIRARPPRLPRPRPRPFLGPRP	0.0605
RRIRARPPRLPRPRPRPFLLPRP	-0.223

Sequence	shrunken log2 fold change
RRIRARPPRLPRPRPRPFMDPRP	0.00846
RRIRARPPRLPRPRPRPFMNPRP	-0.0629
RRIRARPPRLPRPRPRPFNDPRP	-0.147
RRIRARPPRLPRPRPRPFNVPRP	0.0338
RRIRARPPRLPRPRPRPFNYPRP	-0.0393
RRIRARPPRLPRPRPRPFPFPRP	-0.112
RRIRARPPRLPRPRPRPFQHPRP	-0.162
RRIRARPPRLPRPRPRPFQLPRP	-0.94
RRIRARPPRLPRPRPRPFRRPRP	-0.0278
RRIRARPPRLPRPRPRPFTRPRP	0.105
RRIRARPPRLPRPRPRPFVCPRP	-0.476
RRIRARPPRLPRPRPRPFWTPRP	0.29
RRIRARPPRLPRPRPRPFYDPRP	0.314
RRIRARPPRLPRPRPRPFYFPRP	0.00316
RRIRARPPRLPRPRPRPGALPRP	1.22
RRIRARPPRLPRPRPRPGCEPRP	1.1
RRIRARPPRLPRPRPRPGCKPRP	0.321
RRIRARPPRLPRPRPRPGEAPRP	0.942
RRIRARPPRLPRPRPRPGEVPRP	0.935
RRIRARPPRLPRPRPRPGFGPRP	0.667

Sequence	shrunken log2 fold change
RRIRARPPRLPRPRPRPGFPPRP	0.213
RRIRARPPRLPRPRPRPGHIPRP	0.0195
RRIRARPPRLPRPRPRPGHSPRP	-0.0933
RRIRARPPRLPRPRPRPGIGPRP	0.524
RRIRARPPRLPRPRPRPGIYPRP	-0.225
RRIRARPPRLPRPRPRPGKSPRP	0.294
RRIRARPPRLPRPRPRPGKWPRP	0.19
RRIRARPPRLPRPRPRPGLWPRP	1.04
RRIRARPPRLPRPRPRPGMTPRP	0.261
RRIRARPPRLPRPRPRPGNTPRP	-0.0858
RRIRARPPRLPRPRPRPGPFPRP	0.231
RRIRARPPRLPRPRPRPGQDPRP	0.15
RRIRARPPRLPRPRPRPGRMPRP	0.237
RRIRARPPRLPRPRPRPGSWPRP	0.759
RRIRARPPRLPRPRPRPGTDPRP	0.565
RRIRARPPRLPRPRPRPGTGPRP	0.158
RRIRARPPRLPRPRPRPGYCPRP	-0.012
RRIRARPPRLPRPRPRPGYHPRP	-0.14
RRIRARPPRLPRPRPRPGYLPRP	0.0801
RRIRARPPRLPRPRPRPGYMPRP	-0.21
